In patent US6066780A, “Modification of lignin synthesis in plants” (Zeneca Limited, priority 1991, dated 2000):

Substrate: COc1cc(/C=C/CO)ccc1O
Experiment: Kinetic characterisation of purified tobacco CAD enzyme
Format: biochemical
Conditions: other: pure enzyme purified to homogeneity from tobacco stems; specific for NADP; pH 7.5
Procedure: Six week old tobacco stems were frozen in liquid N, crushed with a hammer and homogenized in a Waring blender in buffer A. The homogenate was centrifuged at 45000×g for 30 min. Solid ammonium sulphate was added to the supernatant to bring it to 70% saturation and proteins were precipitated at 4° C. for 30 min. The precipitate was collected by centrifugation at 10,000 rpm for 1 hour. The pellet was resuspended in a minimum volume of buffer supplemented with 5% ethylene glycol, to reduce the ammonium sulphate concentration to approximately 40% saturation.
The supernatant was desalted and applied to a Blue Sepharose column. The column was washed in at least 6 column volumes buffer including one column volume supplemented with 4 mM NAD. This wash elutes other alcohol dehydrogenases. Specific elution of CAD was performed with a gradient of 0-4 mM NADP in buffer B. CAD-containing fractions were pooled and 5% ethylene glycol was added.
The pooled fractions from Blue Sepharose were applied to an FPLC Mono Q column. The column was washed until the Absorbance dropped to baseline levels. Proteins were eluted in a linear gradient of buffer with 20-400 mM Tris-HCl, pH 7.5.
MonoQ fractions were applied to a column of 2'5'ADP-Sepharose. The column was washed with 6 column volumes buffer including one column volume supplemented with 4 mM NAD. […]

B1: tobacco cinnamyl alcohol dehydrogenase (CAD, E.C. 1.1.1.195), purified from tobacco stems (Nicotiana tabacum) (protein)
chain 1: MGSLDVEKSAIGWAARDPSGLLSPYTYTLRNTGPEDVQVKVLYCGLCHSDLHQVKNDLGMSNYPLVPGHEVVGKVVEVGADVSKFKVGDTVGVGLLVGSCRNCGPCKREIEQYCNKKIWNCNDVYTDGKPTQGGFANSMVVDQNFVVKIPEGMAPEQAAPLLCAGITVYSPFNHFGFNQSGFRGGILGLGGVGHMGVKIAKAMGHHVTVISSSNKKRQEALEHLGADDYLVSSDTDKMQEAADSLDYIIDTVPVGHPLELYLSLLKIDGKLILIGVINTPLQFISPMVMLGRKSITGSFIGSMKETEEMLDFCKEKGVTSQIEIVKMDYINTAMERLEKNDVSYRFVVDVAGSKLDQ
chain 2: MGGLEVEKTTIGWAARDPSGVLSPYTYTLRNTGPEDVEVKVLYCGLCHTDLHQVKNDLGMSNYPLVPGHEVVGEVVEVGPDVSKFKVGDTVGVGLLVGSCRNCGPCKRDIEQYCNKKIWNCNDVYTDGKPTQGGFAKSMVVDQKFVVKIPEGMAPEQAAPLLCAGITVYSPLNHFGFKQSGLRGGILGLGGVGHMGVKIAKAMGHHVTVISSSNKKRQEALEHLGADDYLVSSDTDKMQEASDSLDYIIDTVPVGHPLEPYLSLLKIDGKLILMGVINTPLQFISPMVMLGRKSITGSFIGSMKETEEMLDFCKEKGVTSQIEIVKMDYINTAMERLEKNDVRYRFVVDVIGSKLDQ
notes: Using this protocol tobacco CAD was purified to homogeneity; from tissue; host or cells: stems of six week old tobacco plants
Protein B1 has a Km of 12 µM.
